This is an account of results in publication PMC7473641, “The C-terminal helix of BubR1 is essential for CENP-E-dependent chromosome alignment” (Journal of Cell Science, 2020).

B1: CENP-E_(2069–2358)–GST (domain or fragment, human, UniProt Q02224-1 2069-2358, looked up)
chain: DRQNHQVKPEKRLLSDGQQHLTESLREKCSRIKELLKRYSEMDDHYECLNRLSLDLEKEIEFQKELSMRVKANLSLPYLQTKHIEKLFTANQRCSMEFHRIMKKLKYVLSYVTKIKEEQHESINKFEMDFIDEVEKQKELLIKIQHLQQDCDVPSRELRDLKLNQNMDLHIEEILKDFSESEFPSIKTEFQQVLSNRKEMTQFLEEWLNTRFDIEKLKNGIQKENDRICQVNNFFNNRIIAIMNESTEFEERSATISKEWEQDLKSLKEKNEKLFKNYQTLKTSLASGAQ
notes: no own measurement of the oligomeric state; source: E. coli BL21-CodonPlus (DE3)-RIL, purified; not shown: GST, C-terminal, kept
B2: CENP-E_(2091–2358)–GST (domain or fragment, human, UniProt Q02224-1 2091-2358, looked up)
chain: ESLREKCSRIKELLKRYSEMDDHYECLNRLSLDLEKEIEFQKELSMRVKANLSLPYLQTKHIEKLFTANQRCSMEFHRIMKKLKYVLSYVTKIKEEQHESINKFEMDFIDEVEKQKELLIKIQHLQQDCDVPSRELRDLKLNQNMDLHIEEILKDFSESEFPSIKTEFQQVLSNRKEMTQFLEEWLNTRFDIEKLKNGIQKENDRICQVNNFFNNRIIAIMNESTEFEERSATISKEWEQDLKSLKEKNEKLFKNYQTLKTSLASGAQ
notes: no own measurement; not shown: GST, C-terminal, kept
B3: CENP-E_(2055–2358), minimal kinetochore-targeting domain of CENP-E (domain or fragment, human, UniProt Q02224-1 2055-2358, looked up)
chain: RDQFIATLREMIARDRQNHQVKPEKRLLSDGQQHLTESLREKCSRIKELLKRYSEMDDHYECLNRLSLDLEKEIEFQKELSMRVKANLSLPYLQTKHIEKLFTANQRCSMEFHRIMKKLKYVLSYVTKIKEEQHESINKFEMDFIDEVEKQKELLIKIQHLQQDCDVPSRELRDLKLNQNMDLHIEEILKDFSESEFPSIKTEFQQVLSNRKEMTQFLEEWLNTRFDIEKLKNGIQKENDRICQVNNFFNNRIIAIMNESTEFEERSATISKEWEQDLKSLKEKNEKLFKNYQTLKTSLASGAQ
notes: Monomer by SEC-MALS; source: E. coli BL21-CodonPlus (DE3)-RIL, purified (HisTrap, Superdex 200)
B4: CENP-E_(2055–2608), kinetochore- and centrosome-targeting domain of CENP-E (domain or fragment, human, UniProt Q02224-1 2055-2608, looked up)
chain: RDQFIATLREMIARDRQNHQVKPEKRLLSDGQQHLTESLREKCSRIKELLKRYSEMDDHYECLNRLSLDLEKEIEFQKELSMRVKANLSLPYLQTKHIEKLFTANQRCSMEFHRIMKKLKYVLSYVTKIKEEQHESINKFEMDFIDEVEKQKELLIKIQHLQQDCDVPSRELRDLKLNQNMDLHIEEILKDFSESEFPSIKTEFQQVLSNRKEMTQFLEEWLNTRFDIEKLKNGIQKENDRICQVNNFFNNRIIAIMNESTEFEERSATISKEWEQDLKSLKEKNEKLFKNYQTLKTSLASGAQVNPTTQDNKNPHVTSRATQLTTEKIRELENSLHEAKESAMHKESKIIKMQKELEVTNDIIAKLQAKVHESNKCLEKTKETIQVLQDKVALGAKPYKEEIEDLKMKLVKIDLEKMKNAKEFEKEISATKATVEYQKEVIRLLRENLRRSQQAQDTSVISEHTDPQPSNKPLTCGGGSGIVQNTKALILKSEHIRLEKEISKLKQQNEQLIKQKNELLSNNQHLSNEVKTWKERTLKREAHKQVTCENSPKS
notes: Dimer by SEC-MALS; Aggregated in 150 mM NaCl and was kept in 500 mM NaCl; Cloned in pET-3aTr; also called longer dimeric kinetochore-targeting domain; source: E. coli BL21-CodonPlus (DE3)-RIL, purified (HisTrap, Superdex 200 in 500 mM NaCl)
B5: BubR1_(705–1050), pseudokinase domain of BubR1 (domain or fragment, human, UniProt O60566 705-1050, looked up)
chain: EKLELTNETSENPTQSPWCSQYRRQLLKSLPELSASAELCIEDRPMPKLEIEKEIELGNEDYCIKREYLICEDYKLFWVAPRNSAELTVIKVSSQPVPWDFYINLKLKERLNEDFDHFCSCYQYQDGCIVWHQYINCFTLQDLLQHSEYITHEITVLIIYNLLTIVEMLHKAEIVHGDLSPRCLILRNRIHDPYDCNKNNQALKIVDFSYSVDLRVQLDVFTLSGFRTVQILEGQKILANCSSPYQVDLFGIADLAHLLLFKEHLQVFWDGSFWKLSQNISELKDGELWNKFFVRILNANDEATVSVLGELAAEMNGVFDTTFQSHLNKALWKVGKLTSPGALLFQ
notes: source: E. coli BL21-CodonPlus (DE3)-RIL (overnight at 18°C), purified (HisTrap, 3C protease, SEC); not shown: His6, N-terminal, cleaved

In series [1] the target is B5. In words: SEC; co-elution on Superdex Increase 200 10/300 GL in binding buffer (20 mM HEPES pH 7.5, 150 mM NaCl, 1 mM EDTA, 1 mM DTT); proteins mixed in equimolar ratio at ~7 µM; fractions on Coomassie gels. The settings on record: both partners purified. In general terms: SEC sorts molecules by how far they enter the pores of the column.
Series [2] addresses B5. Put plainly: ITC; 276 µM BubR1 705-1050 titrated into 25 µM CENP-E 2091-2358-GST at 37°C; 20 mM HEPES pH 7.5, 150 mM NaCl, 1 mM EDTA, 0.005% Tween-20, 0.5 mM TCEP; one set of sites. The settings on record: both partners purified. In general terms: ITC needs no label: the signal is the heat of the interaction.
Series [3] concerns the molecule itself. In words: SEC-MALS; 100 µl at 1 mg/ml on Superdex-200 10/300 GL Increase, 22°C, gel filtration buffer (20 mM HEPES pH 7.5, 300 mM NaCl, or 500 mM for CENP-E 2055-2608, 1 mM EDTA, 1 mM DTT).
In series [4] the target is T1, BubR1_(432–1050), C terminus of BubR1 containing the pseudokinase domain (human, UniProt O60566 432-1050).
T1 construct: source: purified recombinant
In words: SEC; co-elution on Superdex Increase 200 10/300 GL in binding buffer (20 mM HEPES pH 7.5, 150 mM NaCl, 1 mM EDTA, 1 mM DTT); proteins mixed in equimolar ratio at ~7 µM; fractions on Coomassie gels. As to conditions: both partners purified.

The series “CENP-E_(2091–2358)–GST” addresses B2. In words: ITC; 276 µM BubR1 705-1050 titrated into 25 µM CENP-E 2091-2358-GST at 37°C; 20 mM HEPES pH 7.5, 150 mM NaCl, 1 mM EDTA, 0.005% Tween-20, 0.5 mM TCEP; one set of sites. As to conditions: both partners purified.

Regarding B1, in series [1], the binding result was “binds”.
Usually Kd stands for the constant that tells how readily two partners part at equilibrium. Low values mean a tighter complex, high ones a looser complex. As to B2, in series [2], the Kd came out at 318 nM.
On to B3, for which, in series [1], the binding result is “binds”.
One may read the stoichiometry N as a count of units in the complex or per binding partner. B4: in series [3], the “stoichiometry N” value was 2. Besides, the binding result in series [4] is recorded as “binds”.
Regarding B5, in the series with CENP-E_(2091–2358)–GST, the dH is -5.1 kcal/mol and the “stoichiometry N” value came to 0.908.
